Results from PMC2867295 (The Journal of Cell Biology, 2010).

Target: mouse calmodulin, bacterially expressed and biotinylated (mouse, UniProt P0DP26 1-149, biotinylated (EZ-link Sulfo-NHS-LC-Biotinylation kit))
Experiment: far-Western, overlay or dot blot

B1: Pcdp1-2, fragment aa 447–530 of mouse Pcdp1 with the uncharacterized predicted CaM-binding motif (domain or fragment)
chain: PLVNNVWLTRHRAQRRFQQAARKIMLERRLLSMLGAIRGMDKESILRKIIQVNGKLIQGENPSRGRRAHLKQEDNIWRYSLESE
binding result: binds
